Reference: the Immune Epitope Database (IEDB)

Assays:
HLA-A*02:01 = assay: IEDB peptide-MHC binding, purified MHC/competitive/fluorescence; filed as Kd, often an IC50 or EC50 that approximates it; ≥ and ≤ were set here for values at or beyond the usual limits of such assays; conditions: source organism: Toxoplasma gondii
HLA-A*02:12 = assay: as above; conditions: source organism: Toxoplasma gondii
HLA-B*18:01 = assay: IEDB peptide-MHC binding, purified MHC/competitive/radioactivity; filed as Kd, often an IC50 or EC50 that approximates it; ≥ and ≤ were set here for values at or beyond the usual limits of such assays
HLA-B*40:01 = assay: as above
HLA-B*40:02 = assay: as above
HLA-B*44:02 = assay: as above
HLA-B*44:03 = assay: as above
HLA-B*45:01 = assay: as above
HLA-A*30:01 = assay: as above; conditions: source organism: Vaccinia virus WR
HLA-A*32:01 = assay: as above; conditions: source organism: Vaccinia virus WR
HLA-B*08:01 = assay: as above
HLA-B*15:01 = assay: as above; conditions: source organism: Vaccinia virus WR
HLA-B*15:03 = assay: as above
HLA-B*48:01 = assay: IEDB peptide-MHC binding, purified MHC/direct/fluorescence; filed as Kd, often an IC50 or EC50 that approximates it; ≥ and ≤ were set here for values at or beyond the usual limits of such assays; conditions: source organism: Dengue virus
[1] = source organism: Mammarenavirus guanaritoense
[2] = source organism: Vaccinia virus WR
[3] = source organism: Lymphocytic choriomeningitis virus (strain Armstrong)
[4] = source organism: Mammarenavirus machupoense
[5] = source organism: SARS coronavirus Tor2

## NLMVNEQAA
HLA-A*02:01
  Kd: ≥ 20000 nM
HLA-A*02:12
  Kd: 18.9 nM

## PEFDWILGW
HLA-B*18:01; [1]
  Kd: 5120 nM
HLA-B*40:01; [1]
  Kd: ≥ 76100 nM
HLA-B*40:02; [1]
  Kd: ≥ 22000 nM
HLA-B*44:02; [1]
  Kd: 212 nM
HLA-B*44:03; [1]
  Kd: 27.4 nM
HLA-B*45:01; [1]
  Kd: ≥ 77700 nM

## QIVAYFSEF
HLA-A*30:01
  Kd: 12700 nM
HLA-A*32:01
  Kd: 70.4 nM
HLA-B*08:01; [2]
  Kd: 1930 nM
HLA-B*15:01
  Kd: 1.38 nM
HLA-B*15:03; [2]
  Kd: 7.85 nM

## RDLVISDSS
HLA-B*18:01; [1]
  Kd: ≥ 77500 nM
HLA-B*40:01; [1]
  Kd: ≥ 53400 nM
HLA-B*40:02; [1]
  Kd: 2490 nM
HLA-B*44:02; [1]
  Kd: ≥ 77900 nM
HLA-B*44:03; [1]
  Kd: ≥ 35800 nM
HLA-B*45:01; [1]
  Kd: ≥ 77700 nM

## REPVDQKQF
HLA-B*18:01; [3]
  Kd: ≥ 47600 nM
HLA-B*40:01; [3]
  Kd: ≥ 40500 nM
HLA-B*40:02; [3]
  Kd: 11900 nM
HLA-B*44:02; [3]
  Kd: 1630 nM
HLA-B*44:03; [3]
  Kd: 7920 nM
HLA-B*45:01; [3]
  Kd: ≥ 77700 nM

## RREKRSVAL
HLA-B*48:01
  Kd: 842 nM
HLA-B*08:01; source organism: Dengue virus 2 Jamaica/1409/1983
  Kd: 40.9 nM

## SEILKTLGF
HLA-B*18:01; [4]
  Kd: 655 nM
HLA-B*40:01; [4]
  Kd: 1000 nM
HLA-B*40:02; [4]
  Kd: 165 nM
HLA-B*44:02; [4]
  Kd: 4.21 nM
HLA-B*44:03; [4]
  Kd: 14.1 nM
HLA-B*45:01; [4]
  Kd: 1610 nM

## SEMVMCGGSL
HLA-B*18:01; [5]
  Kd: 355 nM
HLA-B*40:01; [5]
  Kd: 0.475 nM
HLA-B*40:02; [5]
  Kd: 1020 nM
HLA-B*44:02; [5]
  Kd: 2.24 nM
HLA-B*44:03; [5]
  Kd: 12.3 nM
HLA-B*45:01; [5]
  Kd: 16.3 nM

## SLNECIISF
HLA-B*15:03; [2]
  Kd: 66.9 nM

## SMVQILSSL
HLA-B*15:03; source organism: Vaccinia virus Copenhagen
  Kd: ≥ 77200 nM
